From the nanobody polyreactivity screen of Harvey et al. (2022)

Assay: yeast display, Sf9 membrane polyspecificity reagent, FACS + sequencing; frameworks hold sequencing errors
How it was run: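 Genes from sorted yeast were amplified by colony PCR, read by MiSeq 2 × 250 sequencing and filtered on CDR length. These cells carried a synthetic nanobody library in Saccharomyces cerevisiae BJ5465 and were sorted by FACS into low and high (top ~1%) gates on anti-HA and streptavidin fluorescence. Polyreactivity is labelled according to the gate of origin.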

QDQHVESGGGLVQAGGSLRLSCAASGLTSLGNAMGWYRQAPGKERELVAAITRTGTSTYYADSVKGRFTISRDNAKNTVYLQMNSLKPEDTAVYYCAADWWYGYSNYDYWGQGTQVTVSS
polyreactivity (PSR sort gate): low polyreactivity

QVQLVESGGGLVQAGGSLRLSCAASGSIFEENAMGWYRQAPGKERELVAAINTRGGSTYYADSVKGRFTLSRDNAKNTVYLQMNSLKPEDTAVYYCALISRYYYWGQGTQVTVSS
polyreactivity (PSR sort gate): high polyreactivity

QVQLVESGGGLVQAGGSLRLSCAASASTFWFNVMGWYRQATGKETELDAVITWTGGSTSYADSVKGRFTISRDNAKNTVYLQMNSLKPEDTAVYYCATPVKFGGVPYRYGYWGQGTQVTVSS
polyreactivity (PSR sort gate): low polyreactivity

QVQLVESGGGLVQAGGSLRLSCAASGGTFRKYAMGWYRPAPGKERELVATISNGGSTYYADSVKGRFTISRDNAKNTVYLQMNSLIPEDTAVYYCAARFDYWVSGGLVKYNYWGQGTQVTVSS
polyreactivity (PSR sort gate): high polyreactivity

QVQLVEAGGGLVQAGGTLRLSCDPSGLIFGLYAMGWYRHAPGKERELVAAISESGGGITYYADSVKGRFTISRDNAKNTVYLQMYSLKPEDTAVYYCNADRYVWAGFDFSTYDYWGQGTLVTVSS
polyreactivity (PSR sort gate): low polyreactivity

QVQLLESGGGLVQAGGSLRLSCAASGRIFGVNAMGWYRQAPGKERELVAAISAGGGNTYYADSVKGRFTISRDNAKNSVYLQMNSLKPEDTAVYYCNVQRSLRMDYWGQGTQVTVSS
polyreactivity (PSR sort gate): high polyreactivity

QVQLVESGGGLVQAGGSLRLSCAASGSIIGYNTMGWYRQAPGKERELVAAISYSSGSTHYADSVKGRFTISRDNAKNTVYLQMNSLKPEDTAVYYCNTVRRWSFGYWGQGTQVTVSS
polyreactivity (PSR sort gate): low polyreactivity

QVQLVESGGGLVQAGGSHRLSCAASGSILWENAMGWYIQAPRKERELVATISVSGGGTYYADSVKGRFTISRDKAKNTDYLQMNSLKPEDTAVYYCNARYGYESQGWEDYWGQGTQVTVSS
polyreactivity (PSR sort gate): low polyreactivity

HVQLVESGGGLVQAGGSLRLSCAASGFIFDVNAMGWYRQAPGKERELVAVIRGSGGSTYYADSVKGRFTISRDNAKNTVYLQMNSLKPADTAVYYCAAAVNHVAYHYNYWGQGTQVTVSS
polyreactivity (PSR sort gate): high polyreactivity

QVQLVESGGGLVQEGGSLRLSCSASGSIFYVYAMGRYRPARGKDRELVAAISSIDGNTYYADSVKGRFTISRDNAKNTVYLQMNSLKPEETAVYYCAAAYYNTDYYYWGKGTQVTVSS
polyreactivity (PSR sort gate): low polyreactivity

QVQLVESGGGLVQAGGSLRLSCAASGYIFEDYAMGWYRQAPGKERELVASIDSGSTTNYADSVKGRFTISRDNAKNTVYLQMNSLKPEDTAVYYCAADSYVSPEVRFDYWGQGTQVTVSS
polyreactivity (PSR sort gate): low polyreactivity

QVQLVESGGGLVQAGGSLRLSCAASGFTISRYAMGWYRQAPGKERELVAAITWSGVSTYYADSVKGRFTISRDNAKNTVYLQMNSRKPEDTAVYYCAATTYSSSSSHDYWGQGTQVTVSS
polyreactivity (PSR sort gate): low polyreactivity

QVQLVESGGGLVQAGGSLRLSCAASGRIFPWNAMGWYRQAPGKERELVAAISFSAGRTYYADSVKGRFTISRDNAKTTVYLQMTSLKPEDTAVYFCTKASYWGSGFDYWGQGTQVTVSS
polyreactivity (PSR sort gate): low polyreactivity

QVQLVESGGGLVQAGGSLRLSCAAYGSTFCVYAMGWYRQAQGKERELVAAINFSGRTYYADSVKVRFSISRDNAKNTVYVQMNSLKPEDTAVYYCAARIIFEDVGTKYYYWGQGTHVTVSS
polyreactivity (PSR sort gate): high polyreactivity

QVQLVESGGGLVQAGGRLRLSCAASGIIFFWYVRGWYRQAPGKERELVAAINRGGITNYADSVKGRFTISRDNAKNTVYLQMNSLKTEDTAVYYCNKDWKTESWFNRYGGYGIEDDYWGQGTQVTVSS
polyreactivity (PSR sort gate): high polyreactivity

QVQLVESGGGLVQAGGSLRISCAASGLTILFYAMAWYRQAPGKERELVASIRWSDGRTYYADSVKGRFTISRDNAKNTVYLQMNSLKPEDTAVYYCAARSYLTPEYYYWGQGTQVTVSS
polyreactivity (PSR sort gate): high polyreactivity

QVQLVESGGGLVQAGGSLRLSCAASGRTFYSNAMGWYRQAPGKERELVATISSSGGSTYYADSVKGRFTISRDNAKNTVYLQMNSLKPEDTAVYYCAADPSGDYWGQGTQVTVSS
polyreactivity (PSR sort gate): low polyreactivity

QVQLVESGGGLVQAGGSLRLSCAASGFTFTGYAMGWYRQAPGKERELVAAISQSGGSTYADSVKGRFTISRDNAKNTVYLQMNSLKPEDTAVYYCAAVWFLLTEYDYWGQGTQVTVSS
polyreactivity (PSR sort gate): low polyreactivity

QVQLVESGGGLVQAGGSLRLSCAASGSTFEYYAMGWYRQAPGKERELVATITFGGGSTYYADSVKGRFTISRDNAKNTVYLQMNSLKPEDTAVYYCAADSGYLGIYGDEYSWGQGTQVTVSS
polyreactivity (PSR sort gate): low polyreactivity

QVQLVESGGGLVQAGGSLRLSCAASGRTFTSYAMGWYRQAPGKESELVAAIRRSGGSTYADSVKGRFTISRDNAKNTVYLQMNSLKPEDTAVYYCAAGHYWFTKGYHTLYDMDYWGQGTQVTVSS
polyreactivity (PSR sort gate): high polyreactivity

QVQLVESGGGLVQARGSLRLSCAASGRTLYDYAMGWYRPAPGKERELVAAISSSGATTYYADSVKGRFTISRDHAKNTVYLQMNSLKPEDTAVYYCAAESVHQAWSGYYYWGQGTQVTVSS
polyreactivity (PSR sort gate): high polyreactivity

QVQLVESGGGLVQAGGSLRLSCAASGSTFYPYAMGRYRQAPGKERELVAAISSGGSTSYADSVKGRFTISRDNAKNTVYLQLNSLKPEDTAVYYCNASSPGAVPVYDYDYWGQGTQVTVSS
polyreactivity (PSR sort gate): low polyreactivity

QDQLVESGGGLVQAGASLRLSCAASGITFNVYAMGWYRQAPGKEREFVAAISYNGGRTYYADSVKGRFTISRDNAKNTVYLQMNSLKPEDTAVYYCAAQWAWGPYDYWGQGTQVTVSS
polyreactivity (PSR sort gate): high polyreactivity

QVQRVESGGGLVQAGGSLRLSCAASGSIFGPNTIGWSRQAPGKERDLVAAITRSGGSTYYADSVKGRFTISRDNAKNTVYLQMNSLKPEDTAVYYCAVGDGFEYDWGQGTQVTVSS
polyreactivity (PSR sort gate): low polyreactivity

QVQLVESGGGLVQAGGSLSLRCADSGRTLWAYAMGGYREAAGNDRELVAAISASGGSTYYADSVKGRFTISRDIAKNTVYLQMNSLKPADTAVYYCRLVSKGRLYDYCGQGTQVTVSS
polyreactivity (PSR sort gate): high polyreactivity

QVQLVESGGGLVQAGGSLRLSCAASGRTFGFYGMGWYRQAPGKEREFVAAITRRGGSTYYADSVKGRFTISRDNAKNTVYLQMNSLNPEDTAVYYCNAARGAYYRWWGFGSDYWGQGTQVTVSS
polyreactivity (PSR sort gate): high polyreactivity

QVQLVESGGGLVQAGGSLRLSCAASGRTFGYYAMGWYRQAPGKERELVAAISGSGGSTYYADSVKGRFTISRDNAKNTVYLQMKSLKPEDTAVYYCNVYPPYAMDYWGQGTQVTVSS
polyreactivity (PSR sort gate): high polyreactivity

QVQLVDSGGGLVQAGGSLRLSCAASGSIFYQYAMGWYRQAPGKQRELVAAISRSGGSTYYADSVKGRFTISRDNAKNTVYLQMISLKPEDTAVYYCAARAVRAAYDYWGLGTQVTVSS
polyreactivity (PSR sort gate): low polyreactivity

QVQLEESGGGLVQEGGSLRLICAASGSTFYVYARGWYRQAPGKERELVAAITGSTGSTYYADSVKGRFTISRDNAKNTVELQMNSLKTEVTAFYYCDADFYGVPIIYDYWRQGTQVTVSS
polyreactivity (PSR sort gate): low polyreactivity

QVQLVESGGGLVQAGGSLRLTCAASGSTFSYYAMGWYRQPPRKERELVAVITWSGASTYYADSVKGRFTISRDNAKNTVYLQMNSLKPEDTAVYYCAADKYLSYDYWGQGTQVSVSS
polyreactivity (PSR sort gate): low polyreactivity

QVQLVESGGGLVQAGGSLRLSCAASGFTFGFYAMGWYRQAPGKERELVASITTRGGSTRYADSVKGRFTISRDNAKNTVYLQMNSLKPEDTAVYYCAAQYSYVRYLKRGYGYWGQGTQVTVSS
polyreactivity (PSR sort gate): high polyreactivity

QVQLVESGGGLVQAGGSLRLSCAASGFIFRFNAMGWYRQAPGKERELVAGITWSGGSTYYADSVKGRFTISRDNAKNTVYLQMNSLKPEDTAVYYCAADNPYLGRKFDYWGQGTQVTVSS
polyreactivity (PSR sort gate): high polyreactivity

QVQLVESGGCLVQAGGSLRLSCAASGSTFTYNAMGGYRQAPGKERELVAGISWRGGRTYYADSVKGRFTISRDTAKNTVYLQMNSLKPEDTAVYYCNARLWGTHYEYARMYYWGQGTQVTVSS
polyreactivity (PSR sort gate): low polyreactivity

QVQLVESVGGLVQAGGSLRLSCAASGSTFYPNAMGLYRQAPGKESELVAAITSGGSTYYADSVKGRFTISRDNAKNTVYLQMNTLKPEDTAVYYCAAQRRYHLDTTIGPGNYYYWGQGTQVTVSS
polyreactivity (PSR sort gate): low polyreactivity

QVQLVESGGGLVQAGGSLRLSCAASGRTFLHNAKGWYRQAHGKERELVAAIDSGGTTHYADSVKGRFTISRDNAKNTVYLQMKSLKPEDTAVYYCAARPTRGNWWYGYWGQGTQVTVSS
polyreactivity (PSR sort gate): low polyreactivity

QDQLVESGGGLFQAGGSLRLSCAASGFTFVDYTMGWYRQEPGKEREFVAAISSSGGSTYYADSVKGRITISRDYAKNTVYFQMNSLKPEDTAVYYCKADAINKRGGRDYWGQGTQVTVSS
polyreactivity (PSR sort gate): high polyreactivity

QVQLVESGGGLVQAGGSLRLSCAASGNTLAYYVMGWYRQAPGKERELVAAITSGGTTNYADSVKGRFTISRDNAKNTVYLQMNSLNPEDTAVYYCAGCPSKRPPWLRQGGYDYWGQGTQVTVSS
polyreactivity (PSR sort gate): low polyreactivity

QVQLVESGGGLVQAGGSLRLSCAASGSTFYVNTLGWYRQAPGKERELVAAISGSGTSTYYADSVKGRFTISRDNAKNTVYLQMNSLKPEDTAVYYCNKYQLVRTYGSYSYYYWGQGTQVTVSS
polyreactivity (PSR sort gate): high polyreactivity

QVQHVDSAGGLVQAGGSLRLSCAASGSTFAPNAMGWYRQAPGKERELVAAISFRGVRTYYADSVKGRFTISRDNAKNTVYLQMNCLKPEDTAVYYCNKRVQRRNKPGAYNYEYWGQGTQVTVSS
polyreactivity (PSR sort gate): high polyreactivity

QVQLVESGGGLVQAGGSLRLSCAASGRTFAKYAMGWYRQAPGKERELVASISGRGTNTYYADSVKGRFTISRDNAKNTVYLQMNSLKPEDTAVYYCAATYVYPYRDSHYYYWGQGTQVTVSS
polyreactivity (PSR sort gate): high polyreactivity

QVQLVESGGGLVQAGGSLRLSCAASGSIFWQNTMGWYRQAPGKERELVAAISWSGGRTYYADSVKGRFTISRDNAKNTVYLQMNSLKPEDTAVYYCAAAFSPGWWSRHTYDYDYWGQGTQVTVSS
polyreactivity (PSR sort gate): high polyreactivity

QVQLVESGGGLVQAGGSLRFSCAASGSTFYLYDMGWYRQAPGQERELVAVISWSGGSTSYADSVKGRFTISRDNAKNTIYLQMYSLKPEDTAVYYCTTDFYHWGQGTQVTVSS
polyreactivity (PSR sort gate): low polyreactivity

QVQLVESGGGLVQAGGSLRLSCAASGFTLDWYVMGWYRQAPRKERELFAAISSSGGRTYYADSVKGRFTISRDNAKNSVYLQMNSLKPEDTAVYYCAAGTYYRVGRGRRVSFVYWGQGTQVTVSS
polyreactivity (PSR sort gate): high polyreactivity
